From PMC6827562 (Structure (London, England : 1993), 2019)
Each block holds one molecule with its values, some of them ahead of it.

How the values were obtained:
PP-1c (Homo sapiens) = PP-1c (Homo sapiens) (UniProt P62136); settings: cited from earlier work
p53 DBD = p53 DBD (human, UniProt P04637 94-292); assay: EMSA
[1] = biological target: T1, Protein phosphatase-1cα (PP-1cα) (human, UniProt P62136 1-330); assay: crystal structure
[2] = biological target: T1, Protein phosphatase-1cα (PP-1cα); assay: SEC-MALS

T1 sequence (P62136 whole entry): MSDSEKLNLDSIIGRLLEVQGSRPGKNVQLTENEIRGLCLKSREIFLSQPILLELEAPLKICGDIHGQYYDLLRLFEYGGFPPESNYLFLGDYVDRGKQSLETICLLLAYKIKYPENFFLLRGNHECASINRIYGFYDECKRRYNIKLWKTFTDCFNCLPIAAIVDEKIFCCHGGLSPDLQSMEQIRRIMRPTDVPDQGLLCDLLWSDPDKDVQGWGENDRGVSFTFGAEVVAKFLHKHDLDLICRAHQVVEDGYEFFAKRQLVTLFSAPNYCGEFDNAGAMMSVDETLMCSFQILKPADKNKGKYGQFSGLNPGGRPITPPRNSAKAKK
Sequence of p53 DBD (P04637 94-292): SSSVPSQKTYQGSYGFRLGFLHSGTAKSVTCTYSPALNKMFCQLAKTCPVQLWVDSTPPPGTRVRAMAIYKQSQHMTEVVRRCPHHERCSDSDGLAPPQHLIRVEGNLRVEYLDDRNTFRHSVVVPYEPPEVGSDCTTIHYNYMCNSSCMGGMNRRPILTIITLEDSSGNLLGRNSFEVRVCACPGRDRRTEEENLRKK
Sequence of PP-1c (Homo sapiens) (P62136 2-330): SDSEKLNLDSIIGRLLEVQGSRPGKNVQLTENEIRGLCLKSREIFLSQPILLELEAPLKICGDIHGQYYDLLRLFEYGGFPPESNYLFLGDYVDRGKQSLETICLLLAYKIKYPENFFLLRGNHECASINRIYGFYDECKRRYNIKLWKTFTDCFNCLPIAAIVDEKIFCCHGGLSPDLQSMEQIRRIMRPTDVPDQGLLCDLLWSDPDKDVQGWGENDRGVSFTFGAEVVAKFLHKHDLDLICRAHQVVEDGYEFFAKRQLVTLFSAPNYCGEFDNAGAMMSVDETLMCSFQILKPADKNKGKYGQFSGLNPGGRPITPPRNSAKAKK

Molecule: iASPP (from UniProt Q8WUF5)
Kd (PP-1c (Homo sapiens)): 26 nM

B1: PUMA p53 site (dsDNA)
DNA 1: CGCGCCTGCAAGTCCTGACTTGTCCGCGGC
DNA 2: GCCGCGGACAAGTCAGGACTTGCAGGCGCG
binding result (p53 DBD): binds

binding result [1]: binds
B2: iASPP_(608–828) (domain or fragment, human, UniProt Q8WUF5 608-828, looked up)
chain: RSVLRKAGSPRKARRARLNPLVLLLDAALTGELEVVQQAVKEMNDPSQPNEEGITALHNAICGANYSIVDFLITAGANVNSPDSHGWTPLHCAASCNDTVICMALVQHGAAIFATTLSDGATAFEKCDPYREGYADCATYLADVEQSMGLMNSGAVYALWDYSAEFGDELSFREGESVTVLRRDGPEETDWWWAALHGQEGYVPRNYFGLFPRVKPQRSKV

binding result [2]: binds
B3: ASPP2_(905–1128) (domain or fragment, human, UniProt Q13625 905-1128, looked up)
chain: RTNLRKTGSERIAHGMRVKFNPLALLLDSSLEGEFDLVQRIIYEVDDPSLPNDEGITALHNAVCAGHTEIVKFLVQFGVNVNAADSDGWTPLHCAASCNNVQVCKFLVESGAAVFAMTYSDMQTAADKCEEMEEGYTQCSQFLYGVQEKMGIMNKGVIYALWDYEPQNDDELPMKEGDCMTIIHREDEDEIEWWWARLNDKEGYVPRNLLGLYPRIKPRQRSLA

binding result [2]: binds
B4: iASPP(621–828) (domain or fragment, human, UniProt Q8WUF5 621-828, looked up)
chain: RRARLNPLVLLLDAALTGELEVVQQAVKEMNDPSQPNEEGITALHNAICGANYSIVDFLITAGANVNSPDSHGWTPLHCAASCNDTVICMALVQHGAAIFATTLSDGATAFEKCDPYREGYADCATYLADVEQSMGLMNSGAVYALWDYSAEFGDELSFREGESVTVLRRDGPEETDWWWAALHGQEGYVPRNYFGLFPRVKPQRSKV
